Results from patent publication US8337813B2, “Contrast agents” (Northwestern University, priority 2007, dated 2012).
Non-standard residues stand in square brackets, D forms with d. Primed or numbered codes have the meaning given here. No end group written: not given here. *: point of attachment. DTPA′ = diethylenetriaminepentaacetic acid (Gd(III) complex) N-cap, O=C([O-])CN(CCN(CC(=O)[O-])CC(=O)[O-])CCN(CC(=O)[O-])CC(=O)*.[Gd+3]; PEG3′ = not defined here

Target: T1, human recombinant MMP-7 (Homo sapiens, UniProt P09237)
T1 sequence (P09237 95-267): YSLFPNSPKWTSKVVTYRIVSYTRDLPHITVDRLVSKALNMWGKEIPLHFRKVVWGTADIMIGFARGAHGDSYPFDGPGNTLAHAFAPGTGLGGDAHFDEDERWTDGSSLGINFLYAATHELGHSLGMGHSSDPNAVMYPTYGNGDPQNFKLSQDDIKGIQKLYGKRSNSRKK
Assay: Enzymatic cleavage by MMP-7, analysed by ESI-MS
Format: biochemical
Method: During development of embodiments of the present invention, a 2 μL aliquot of human recombinant MMP-7 was thawed on ice, diluted to 50 μL with assay buffer containing 1 mM APMA, and incubated for 1 hour at 37° C. to activate the enzyme. To the activated enzyme solution was added 1 μL of a 20 mM solution of gadolinium(III)-diethylenetriaminepentaacetic acid-Ala-Pro-Leu-Ala-Leu-Trp-Ala-PEG3-Ala. The solution was incubated at 37° C. for 24 hours after which 10 μL was dissolved in 50 μL MeOH for analysis by ESI-MS.
1542.75; found negative mode 771.60, (m/2)]

Gadolinium(III)-diethylenetriaminepentaacetic Acid-Ala-Pro-Leu-Ala-Leu-Trp-Ala-PEG3-Ala ({DTPA′}-APLALWA[PEG3′]A; also: Gd(III) complexed by DTPA)
cleavage by MMP-7 (ESI-MS) (activated MMP-7, 37° C., 24 hours): revealed a peak corresponding to the MMP-7 cleavage fragment Leu-Trp-Ala-PEG3-Ala
ESI-MS of control solution lacking MMP-7 (no MMP-7): revealed only the expected uncleaved
